Test results published in patent US20240400708A1.
Positions count from the first letter of the chain named. Names and notes keep the numbering of the source.

B1: feline IgG1a Fc mutant S428Y, S252Y (antibody, part only; not given: Variable domains, not shown: another chain or arm of the molecule; small tags and cut ends)
constant: ASTTAPSVFPLAPSCGTTSGATVALACLVLGYFPEPVTVSWNSGALTSGVHTFPAVLQASGLYSLSSMVTVPSSRWLSDTFTCNVAHPPSNTKVDKTVRKTDHPPGPKPCDCPKCPPPEMLGGPSIFIFPPKPKDTLYISRTPEVTCLVVDLGPDDSDVQITWFVDNTQVYTAKTSPREEQFNSTYRVVSVLPILHQDWLKGKEFKCKVNSKSLPSPIERTISKAKGQPHEPQVYVLPPAQEELSRNKVSVTCLIKSFHPPDIAVEWEITGQPEPENNYRTTPPQLDSDGTYFVYSKLSVDRSHWQRGNTYTCSVYHEALHSHHTQKSLTQSPGK
B2: feline IgG1a Fc mutant S428L, S252H (antibody, part only; not given: variable domains and light chain, not shown: another chain or arm of the molecule; small tags and cut ends)
constant: B1 constant with Y138H, Y316L
B3: feline IgG1a Fc mutant Q311R, S428M (antibody, part only; not given: variable domains and light chain, not shown: another chain or arm of the molecule; small tags and cut ends)
constant: B1 constant with Y138S, Q197R, Y316M
B4: feline IgG1a Fc mutant S428L, S252Y (antibody, part only; not given: Variable domains, not shown: another chain or arm of the molecule)
constant: B1 constant with Y316L
B5: feline IgG1a Fc mutant S428M, S252F (antibody, part only; not given: Variable domains, not shown: another chain or arm of the molecule; small tags and cut ends)
constant: B1 constant with Y138F, Y316M
B6: feline IgG1a Fc mutant S428Y, S252W (antibody, part only; not given: Variable domains, not shown: another chain or arm of the molecule)
constant: B1 constant with Y138W
B7: feline IgG1a Fc mutant Q311R, S428Y (antibody, part only; not given: Variable domains, not shown: another chain or arm of the molecule; small tags and cut ends)
constant: B1 constant with Y138S, Q197R
B8: feline IgG1a Fc mutant Q311W, S428L (antibody, part only; not given: Variable domains, not shown: another chain or arm of the molecule; small tags and cut ends)
constant: B1 constant with Y138S, Q197W, Y316L
B9: feline IgG1a Fc mutant Q311Y, S428Y (antibody, part only; not given: Variable domains, not shown: another chain or arm of the molecule)
constant: B1 constant with Y138S, Q197Y
B10: feline IgG1a Fc mutant Q311H, S428M (antibody, part only; not given: Variable domains, not shown: another chain or arm of the molecule; small tags and cut ends)
constant: B1 constant with Y138S, Q197H, Y316M
B11: feline IgG1a Fc mutant S428L, S434R (antibody, part only; not given: variable domains and light chain, not shown: another chain or arm of the molecule; small tags and cut ends)
constant: B1 constant with Y138S, Y316L, S322R
B12: feline IgG1a Fc mutant Q311M, S428Y (antibody, part only; not given: variable domains, not shown: another chain or arm of the molecule; small tags and cut ends)
constant: B1 constant with Y138S, Q197M
B13: feline IgG1a Fc mutant S428M, S434R (antibody, part only; not given: variable domains, not shown: another chain or arm of the molecule; small tags and cut ends)
constant: B1 constant with Y138S, Y316M, S322R
B14: feline IgG1a Fc mutant S428M, S252W (antibody, part only; not given: variable domains and light chain, not shown: another chain or arm of the molecule; small tags and cut ends)
constant: B1 constant with Y138W, Y316M
B15: feline IgG1a Fc mutant Q311L, S428Y (antibody, part only; not given: Variable domains, not shown: another chain or arm of the molecule)
constant: B1 constant with Y138S, Q197L
B16: feline IgG1a Fc mutant S428L, S252W (antibody, part only; not given: Variable domains, not shown: another chain or arm of the molecule; small tags and cut ends)
constant: B1 constant with Y138W, Y316L
B17: feline IgG1a Fc mutant Q311W, S428M (antibody, part only; not given: Variable domains, not shown: another chain or arm of the molecule; small tags and cut ends)
constant: B1 constant with Y138S, Q197W, Y316M
B18: feline IgG1a Fc mutant Q311L, S428M (antibody, part only; not given: Variable domains, not shown: another chain or arm of the molecule; small tags and cut ends)
constant: B1 constant with Y138S, Q197L, Y316M
B19: feline IgG1a Fc mutant Q311Y, S428L (antibody, part only; not given: Variable domains, not shown: another chain or arm of the molecule; small tags and cut ends)
constant: B1 constant with Y138S, Q197Y, Y316L
B20: feline IgG1a Fc mutant Q311W, S428Y (antibody, part only; not given: Variable domains, not shown: another chain or arm of the molecule)
constant: B1 constant with Y138S, Q197W
B21: feline IgG1a Fc mutant S428L, S252F (antibody, part only; not given: Variable domains, not shown: another chain or arm of the molecule; small tags and cut ends)
constant: B1 constant with Y138F, Y316L
B22: feline IgG1a Fc mutant Q311H, S428L (antibody, part only; not given: Variable domains, not shown: another chain or arm of the molecule; small tags and cut ends)
constant: B1 constant with Y138S, Q197H, Y316L
B23: feline IgG1a Fc mutant S428M, S252H (antibody, part only; not given: Variable domains, not shown: another chain or arm of the molecule; small tags and cut ends)
constant: B1 constant with Y138H, Y316M
B24: feline IgG1a Fc mutant Q311M, S428L (antibody, part only; not given: Variable domains, not shown: another chain or arm of the molecule; small tags and cut ends)
constant: B1 constant with Y138S, Q197M, Y316L
B25: feline IgG1a Fc mutant Q311H, S428Y (antibody, part only; not given: Variable domains, not shown: another chain or arm of the molecule)
constant: B1 constant with Y138S, Q197H
B26: feline IgG1a Fc mutant S428Y, S252H (antibody, part only; not given: Variable domains, not shown: another chain or arm of the molecule; small tags and cut ends)
constant: B1 constant with Y138H
B27: feline IgG1a Fc mutant S428Y, S252F (antibody, part only; not given: Variable domains, not shown: another chain or arm of the molecule)
constant: B1 constant with Y138F
B28: feline IgG1a Fc mutant Q311M, S428M (antibody, part only; not given: Variable domains, not shown: another chain or arm of the molecule; small tags and cut ends)
constant: B1 constant with Y138S, Q197M, Y316M
B29: feline IgG1a Fc mutant Q311R, S428L (antibody, part only; not given: Variable domains, not shown: another chain or arm of the molecule; small tags and cut ends)
constant: B1 constant with Y138S, Q197R, Y316L

These binders were tested against Feline FcRn complex (FcRn-alpha subunit and beta-microglobulin) (feline) (assay: SPR (Biacore), feline FcRn captured on SA chip, IgG flowed over, pH 6).
Binder B1 has a Kd of 8.58 nM.
B2 showed a Kd of 5.94 nM.
Work on B3 yielded a Kd of 5.28 nM.
For B4, the Kd was 4.88 nM.
Work on B5 yielded a Kd of 5.9 nM.
B6 showed a Kd of 2.95 nM.
B7 was tested, and the Kd was 4.81 nM.
With B8 the Kd was 8.08 nM.
B9 gave a Kd of 5.57 nM.
Binder B10 has a Kd of 6.58 nM.
Work on B11 yielded a Kd of 4.66 nM.
B12 showed a Kd of 5.72 nM.
B13 was tested, and the Kd was 5.46 nM.
B14 gave a Kd of 4.65 nM.
Work on B15 yielded a Kd of 4.74 nM.
For B16, the Kd was 6.14 nM.
For B17, the Kd was 6.51 nM.
B18 showed a Kd of 5.7 nM.
B19 was tested, and the Kd was 5.72 nM.
In the case of B20, the Kd is reported as 6.35 nM.
For B21, the Kd was 6.52 nM.
In the case of B22, the Kd is reported as 7.19 nM.
With B23 the Kd was 6.83 nM.
B24 was tested, and the Kd was 6.44 nM.
B25 was tested, and the Kd was 6.92 nM.
In the case of B26, the Kd is reported as 6.41 nM.
In the case of B27, the Kd is reported as 6.62 nM.
With B28 the Kd was 5.66 nM.
Work on B29 yielded a Kd of 5.47 nM.
